Legend:
[1] = target: insulin receptor isoform-A (IR-A); assay: competitive ELISA on IR-A; cold ligand 1-500 nM against 0.8 nM biotinylated insulin
[2] = target: domain 11 of the CI-M6P/IGF2R; assay: competitive ELISA on domain 11 of CI-M6P/IGF2R; cold ligand 1-500 nM against 8 nM biotinylated IGF2

Row | Substance | IC50 [1] | fold lower affinity than Δ1-6.IGF2 peptide [1] | IC50 [2] | times increased IC50 against Δ1-6.IGF2 peptide [2]
1 | IDS.IGF2 (construct 2): IDS tagged C-terminally with aa 1, 8-67 of the mature human IGF2 (from UniProt P22304) | 251 nM | 150 fold | 61.7 nM | 12.3 times
2 | IGF2 peptide carrying a mutation of AA 1-6 (Δ1-6.IGF2 peptide) (from UniProt P01344) (ligand) | 1.61 nM | – | 5.01 nM | –
